B1: mRNA-splicing (parent)
chain: AGUUGCUGCUGGGAGCUCCAGCACAGUGAAAUGGACAGAAGGGCAGAGCAA

Variants of: B1
Experiment: exon inclusion enrichment index; higher = more inclusion; WT1 exon 5 minigene, HEK293

Variant | exon inclusion enrichment index
G5A C6U U7A G8U C9A A45G G46A | 0.447
G5A C6U U7A G8U C9A A29G A30G | 0.0286
G5A C6U U7A G8U C9A A29G A30U | 0.00704
G5A C6U U7A G8U C9A A29G A30C | 0.0104
G5A C6U U7A G8U C9A A40U G41C | 0.359
G5A C6U U7A G8U C9A A40U G41U | 0.0246
G5A C6U U7A G8U C9A A40U G41A | 0.00198
G5A C6U U7A G8U C9A C24G A25U | 0.0695
G5A C6U U7A G8U C9A C24G A25G | 0.0168
G5A C6U U7A G8U C9A C24G A25C | 0.392
G5A C6U U7A G8U C9A A31G U32G | 0.0411
G5A C6U U7A G8U C9A A31G U32C | 0.424
G5A C6U U7A G8U C9A A31G U32A | 0.855
G5A C6U U7A | 0.0138
G5A C6U U7A G8U C9A C19G A20G | 0.0128
G5A C6U U7A G8U C9A C19G A20U | 0.0389
G5A C6U U7A G8U C9A C19G A20C | 0.0894
G5A C6U U7A G8U C9A A39U A40G | 0.0054
G5A C6U U7A G8U C9A A39U A40U | 0.0161
G5A C6U U7A G8U C9A A39U A40C | 0.142
G5A C6U U7A G8U C9A G21A C22A | 0.0256

Variant | exon inclusion enrichment index
G5A C6U U7A G8U C9A G21A C22G | 0.0719
G5A C6U U7A G8U C9A G21A C22U | 0.021
G5A C6U U7A G8U C9A C22U A23U | 0.0179
G5A C6U U7A G8U C9A C22U A23C | 0.0341
G5A C6U U7A G8U C9A C22U A23G | 0.0485
G5A C6U U7A G8U C9A A39C | 0.0192
G5A C6U U7A G8U C9A A39G | 0.00842
G5A C6U U7A G8U C9A A39U | 0.0074
G5A C6U G8U C9U | 0.0357
G5A C6U G8U C9A | 0.038
G5A C6U U7A G8U C9A A47G G48C | 0.0173
G5A C6U U7A G8U C9A A47G G48A | 0.0214
G5A C6U U7A G8U C9A A47G G48U | 0.00228
G5A C6U U7A G8U C9A A20C | 0.047
G5A C6U U7A G8U C9A A20G | 0.102
G5A C6U U7A G8U C9A A20U | 0.0779
G5A C6U U7A G8U C9A G13C A14U | 0.0623
G5A C6U U7A G8U C9A G13C A14G | 0.145
G5A C6U U7A G8U C9A G13C A14C | 0.039
G5A C6U G8C C9A | 0.357
G5A C6U U7A G8U C9A G15C | 0.156

Variant | exon inclusion enrichment index
G5A C6U U7A G8U C9A G15A | 0.0278
G5A C6U U7A G8U C9A G15U | 0.0601
G5A C6G U7G U10A | 0.00101
G5A C6G U7G U10C | 0.0118
G5A C6G U7G U10G | 0.0189
G5A C6U U7A G8U C9A C22U | 0.0424
G5A C6U U7A G8U C9A C22G | 0.0616
G5A C6U U7A G8U C9A C22A | 0.0781
G5A C6U U7A G8U C9A A37U | 0.0684
G5A C6U U7A G8U C9A A37G | 0.17
G5A C6U U7A G8U C9A A37C | 0.285
G5A C6U U7A G8U C9A C22A A23G | 0.0409
G5A C6U U7A G8U C9A C22A A23U | 0.0397
G5A C6U U7A G8U C9A C22A A23C | 0.189
G5A C6U U7A G8U C9A A14U | 0.00769
G5A C6U U7A G8U C9A A14C | 0.0601
G5A C6U U7A G8U C9A A14G | 0.0395
G5A C6U U7A G8U C9A A35C C36U | 0.00346
G5A C6U U7A G8U C9A A35C C36G | 0.0383
G5A C6U U7A G8U C9A A35C C36A | 0.0286
G5A C6U U7A G8U C9A A39G A40U | 0.00682

Variant | exon inclusion enrichment index
G5A C6U U7A G8U C9A A39G A40C | 0.102
G5A C6U U7A G8U C9A A39G A40G | 0.00821
G5A C6U U7A G8U C9A A31C U32A | 0.0278
G5A C6U U7A G8U C9A A31C U32C | 0.363
G5A C6U U7A G8U C9A A31C U32G | 0.0628
G5A C6U U7A G8U C9A A23U C24G | 0.128
G5A C6U U7A G8U C9A A23U C24U | 0.000794
G5A C6U U7A G8U C9A A23U C24A | 0.0228
G5A C6U U7A G8U C9A G15A C16G | 0.0191
G5A C6U U7A G8U C9A G15A C16A | 0.0139
G5A C6U U7A G8U C9A G15A C16U | 0.0138
G5A C6U U7A G8A C9U | 0.0446
G5A C6U U7A G8A C9G | 0.0475
G5A C6U U7A G8A C9A | 0.0655
G5A C6U U7A G8U C9A G13A A14C | 0.394
G5A C6U U7A G8U C9A G13A A14G | 0.0895
G5A C6U U7A G8U C9A G13A A14U | 0.189
G5A C6U U7A G8U C9A A23G C24U | 0.0127
G5A C6U U7A G8U C9A A23G C24G | 0.259
G5A C6U U7A G8U C9A A23G C24A | 0.238

— the RNAGym collection of RNA variant scans (doi:10.1101/gr.219683.116)
